Measurements as given in doi:10.1101/2024.06.17.599268 (bioRxiv, 2024).

T1: Mical1 bMERB domain (residues 918-1067) (human, UniProt Q8TDZ2 918-1067)
T1 sequence: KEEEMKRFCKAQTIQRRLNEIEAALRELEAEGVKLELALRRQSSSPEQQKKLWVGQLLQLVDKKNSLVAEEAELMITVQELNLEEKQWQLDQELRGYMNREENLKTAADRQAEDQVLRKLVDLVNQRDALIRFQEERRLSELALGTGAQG

T2: Rab8a_(1-176) (human, UniProt P61006 1-176)
T2 sequence: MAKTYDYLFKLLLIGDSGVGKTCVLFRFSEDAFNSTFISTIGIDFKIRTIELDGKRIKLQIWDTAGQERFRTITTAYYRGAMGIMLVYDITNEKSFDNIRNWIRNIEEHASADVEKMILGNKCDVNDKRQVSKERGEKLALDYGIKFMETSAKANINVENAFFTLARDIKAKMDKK

T3: Mical1 MO-CH-LIM (residues 1-781) (human, UniProt Q8TDZ2 1-781)
T3 sequence: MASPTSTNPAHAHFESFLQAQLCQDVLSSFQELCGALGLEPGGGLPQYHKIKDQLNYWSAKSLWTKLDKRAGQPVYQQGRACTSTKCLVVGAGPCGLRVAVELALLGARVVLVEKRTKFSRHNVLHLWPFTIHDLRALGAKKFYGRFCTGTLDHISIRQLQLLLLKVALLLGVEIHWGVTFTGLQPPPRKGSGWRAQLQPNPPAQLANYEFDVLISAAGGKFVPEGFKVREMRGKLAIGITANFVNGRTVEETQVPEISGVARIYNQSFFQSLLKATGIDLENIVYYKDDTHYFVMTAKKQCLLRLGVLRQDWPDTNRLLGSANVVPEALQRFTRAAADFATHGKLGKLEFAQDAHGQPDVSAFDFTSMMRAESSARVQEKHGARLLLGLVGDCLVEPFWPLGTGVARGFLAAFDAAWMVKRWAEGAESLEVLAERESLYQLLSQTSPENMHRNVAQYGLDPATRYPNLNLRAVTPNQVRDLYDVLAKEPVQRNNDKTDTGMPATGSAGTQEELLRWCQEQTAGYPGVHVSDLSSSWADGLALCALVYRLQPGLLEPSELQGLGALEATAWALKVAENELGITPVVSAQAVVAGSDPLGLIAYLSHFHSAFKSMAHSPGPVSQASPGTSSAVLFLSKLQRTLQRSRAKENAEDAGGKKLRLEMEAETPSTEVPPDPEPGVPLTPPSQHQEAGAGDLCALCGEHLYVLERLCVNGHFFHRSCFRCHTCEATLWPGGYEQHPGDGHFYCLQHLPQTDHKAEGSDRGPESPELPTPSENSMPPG


Columns and labels:
[1] = biological target: Mical1 MO-CH-LIM (residues 1-781) (human) (UniProt Q8TDZ2); assay: ITC
[2] = biological target: T1, Mical1 bMERB domain (residues 918-1067); assay: ITC
[3] = biological target: T2, Rab8a_(1-176); assay: SEC
[4] = biological target: T3, Mical1 MO-CH-LIM (residues 1-781); assay: ITC
[5] = biological target: T2, Rab8a_(1-176); assay: ITC

Molecule	binding result [3]	fold reduction in affinity against wild-type bMERB [4]	other results
Mical1 bMERB domain (residues 918-1067) (from UniProt Q8TDZ2 918-1067) (domain or fragment)	–	–	Kd [1]: 2700 nM; stoichiometry N [1]: 1
Rab10_(1-175) (natural protein) MAKKTYDLLFKLLLIGDSGVGKTCVLFRFSDDAFNTTFISTIGIDFKIKTVELQGKKIKLQIWDTAGQERFHTITTSYYRGAMGIMLVYDITNGKSFENISKWLRNIDEHANEDVERMLLGNKCDMDDKRVVPKGKGEQIAREHGIRFFETSAKANINIEKAFLTLAEDILRKTP	–	–	KD of the high-affinity site (Ct-RBS2) [2]: 11 nM; KD of the low-affinity site (Nt-RBS1) [2]: 3730 nM; stoichiometry N [2]: 2
Rab15_(1-176) (natural protein) MAKQYDVLFRLLLIGDSGVGKTCLLCRFTDNEFHSSHISTIGVDFKMKTIEVDGIKVRIQIWDTAGQERYQTITKQYYRRAQGIFLVYDISSERSYQHIMKWVSDVDEYAPEGVQKILIGNKADEEQKRQVGREQGQQLAKEYGMDFYETSACTNLNIKESFTRLTELVLQAHRKE	–	–	KD of the high-affinity site (Ct-RBS2) [2]: 2.5 nM; KD of the low-affinity site (Nt-RBS1) [2]: 2910 nM; stoichiometry N [2]: 2
bMERB K918A_E921A (domain or fragment) AEEAMKRFCKAQTIQRRLNEIEAALRELEAEGVKLELALRRQSSSPEQQKKLWVGQLLQLVDKKNSLVAEEAELMITVQELNLEEKQWQLDQELRGYMNREENLKTAADRQAEDQVLRKLVDLVNQRDALIRFQEERRLSELALGTGAQG	binds	2 fold	–
bMERB E939A (domain or fragment) KEEEMKRFCKAQTIQRRLNEIAAALRELEAEGVKLELALRRQSSSPEQQKKLWVGQLLQLVDKKNSLVAEEAELMITVQELNLEEKQWQLDQELRGYMNREENLKTAADRQAEDQVLRKLVDLVNQRDALIRFQEERRLSELALGTGAQG	binds	> 5 fold	–
bMERB V1038A (domain or fragment) KEEEMKRFCKAQTIQRRLNEIEAALRELEAEGVKLELALRRQSSSPEQQKKLWVGQLLQLVDKKNSLVAEEAELMITVQELNLEEKQWQLDQELRGYMNREENLKTAADRQAEDQVLRKLADLVNQRDALIRFQEERRLSELALGTGAQG	binds	–	–
bMERB L977A_V978A (domain or fragment) KEEEMKRFCKAQTIQRRLNEIEAALRELEAEGVKLELALRRQSSSPEQQKKLWVGQLLQAADKKNSLVAEEAELMITVQELNLEEKQWQLDQELRGYMNREENLKTAADRQAEDQVLRKLVDLVNQRDALIRFQEERRLSELALGTGAQG	binds	6 fold	–
bMERB L974A_L975A (domain or fragment) KEEEMKRFCKAQTIQRRLNEIEAALRELEAEGVKLELALRRQSSSPEQQKKLWVGQAAQLVDKKNSLVAEEAELMITVQELNLEEKQWQLDQELRGYMNREENLKTAADRQAEDQVLRKLVDLVNQRDALIRFQEERRLSELALGTGAQG	binds	6 fold	–
bMERB_(V985A) (domain or fragment) KEEEMKRFCKAQTIQRRLNEIEAALRELEAEGVKLELALRRQSSSPEQQKKLWVGQLLQLVDKKNSLAAEEAELMITVQELNLEEKQWQLDQELRGYMNREENLKTAADRQAEDQVLRKLVDLVNQRDALIRFQEERRLSELALGTGAQG	–	10 fold	binding result [5]: binds
bMERB W970A (domain or fragment) KEEEMKRFCKAQTIQRRLNEIEAALRELEAEGVKLELALRRQSSSPEQQKKLAVGQLLQLVDKKNSLVAEEAELMITVQELNLEEKQWQLDQELRGYMNREENLKTAADRQAEDQVLRKLVDLVNQRDALIRFQEERRLSELALGTGAQG	binds	4 fold	–
bMERB_(L1047A_F1050A) (domain or fragment) KEEEMKRFCKAQTIQRRLNEIEAALRELEAEGVKLELALRRQSSSPEQQKKLWVGQLLQLVDKKNSLVAEEAELMITVQELNLEEKQWQLDQELRGYMNREENLKTAADRQAEDQVLRKLVDLVNQRDAAIRAQEERRLSELALGTGAQG	binds	–	–
bMERB L1011S (domain or fragment) KEEEMKRFCKAQTIQRRLNEIEAALRELEAEGVKLELALRRQSSSPEQQKKLWVGQLLQLVDKKNSLVAEEAELMITVQELNLEEKQWQLDQESRGYMNREENLKTAADRQAEDQVLRKLVDLVNQRDALIRFQEERRLSELALGTGAQG	binds	–	–
bMERB F925A (domain or fragment) KEEEMKRACKAQTIQRRLNEIEAALRELEAEGVKLELALRRQSSSPEQQKKLWVGQLLQLVDKKNSLVAEEAELMITVQELNLEEKQWQLDQELRGYMNREENLKTAADRQAEDQVLRKLVDLVNQRDALIRFQEERRLSELALGTGAQG	binds	–	–
bMERB I1048A (domain or fragment) KEEEMKRFCKAQTIQRRLNEIEAALRELEAEGVKLELALRRQSSSPEQQKKLWVGQLLQLVDKKNSLVAEEAELMITVQELNLEEKQWQLDQELRGYMNREENLKTAADRQAEDQVLRKLVDLVNQRDALARFQEERRLSELALGTGAQG	binds	–	–
bMERB_(M992A_I993A) (domain or fragment) KEEEMKRFCKAQTIQRRLNEIEAALRELEAEGVKLELALRRQSSSPEQQKKLWVGQLLQLVDKKNSLVAEEAELAATVQELNLEEKQWQLDQELRGYMNREENLKTAADRQAEDQVLRKLVDLVNQRDALIRFQEERRLSELALGTGAQG	binds	> 25 fold	–
bMERB V1041A (domain or fragment) KEEEMKRFCKAQTIQRRLNEIEAALRELEAEGVKLELALRRQSSSPEQQKKLWVGQLLQLVDKKNSLVAEEAELMITVQELNLEEKQWQLDQELRGYMNREENLKTAADRQAEDQVLRKLVDLANQRDALIRFQEERRLSELALGTGAQG	binds	–	–
bMERB R1044A (domain or fragment) KEEEMKRFCKAQTIQRRLNEIEAALRELEAEGVKLELALRRQSSSPEQQKKLWVGQLLQLVDKKNSLVAEEAELMITVQELNLEEKQWQLDQELRGYMNREENLKTAADRQAEDQVLRKLVDLVNQADALIRFQEERRLSELALGTGAQG	binds	–	–
bMERB L956S (domain or fragment) KEEEMKRFCKAQTIQRRLNEIEAALRELEAEGVKLELASRRQSSSPEQQKKLWVGQLLQLVDKKNSLVAEEAELMITVQELNLEEKQWQLDQELRGYMNREENLKTAADRQAEDQVLRKLVDLVNQRDALIRFQEERRLSELALGTGAQG	binds	> 9 fold	–
bMERB_(V1041A_I1048A) (domain or fragment) KEEEMKRFCKAQTIQRRLNEIEAALRELEAEGVKLELALRRQSSSPEQQKKLWVGQLLQLVDKKNSLVAEEAELMITVQELNLEEKQWQLDQELRGYMNREENLKTAADRQAEDQVLRKLVDLANQRDALARFQEERRLSELALGTGAQG	–	–	binding result [4]: binds
